Our source for the activity (% of reads on target) and activity (% GFP excision) values is patent US20250002876.

Test in all cases: cell_activity
Series [1] concerns ZnF-MLT transposase fusion, covalent linker (Myotis lucifugus). The settings on record: amplicon-seq.
The subject of series [2] is ZnF-MLT transposase, non-covalent linker (Myotis lucifugus). Conditions: HEK293 landing pad, amplicon-seq.
The subject of series [3] is MLT K350A S8P,C13R,K350A (Myotis lucifugus). The settings on record: HEK293; integration >=10% GFP.
The test system of series [4] is MLT K350A/D416A S8P,C13R,K350A,D416A (Myotis lucifugus). Conditions: HEK293; integration >=10% GFP.

As for “CTCCACTGTGGGGTGCCGCAGTGGAGATGACTTGTTTGTTAACGGCACTTTAACAG (double strand) [Landing pad, ZnF sites on both sides of TTAA]”, the activity (% of reads on target) in series [1] (HEK293 plasmid landing pad, TTAA 15 bp from site) is 42; in series [2], 29.

For “Landing pad, single ZnF site next to TTAA”, the values for the activity (% of reads on target) in series [1] (HEK293 landing pad) and in series [2] were 24 and 12, respectively.

In the case of “TTAACACTTGGATTGCGGGAAACGAGTTAAGTCGGCTCGCGTGAATTGCGCGTACTCCGCGGGAGCCGTCTTAACTCGGTTCATATAGATTTGCGGTGGAGTGCGGGAAACGTGTAAACTCGGGCCGATTGTAACTGCGTATTACCAAATATTTGTT / AATTATTTATGTACTGAATAGATAAAAAAATGTCTGTGATTGAATAAATTTTCATTTTTTACACAAGAAACCGAAAATTTCATTTCAATCGAACCCATACTTCAAAAGATATAGGCATTTTAAACTAACTCTGATTTTGCGCGGGAAACCTAAATAATTGCCCGCGCCATCTTATATTTTGGCGGGAAATTCACCCGACACCGTAGTGTTAA [MLT donor left and right ITRs]”, the activity (% GFP excision) in series [3] and in series [4] was more than 20 throughout.
